B1: MMP-2 (Homo sapiens) (protein)
chain: YNFFPRKPKWDKNQITYRIIGYTPDLDPETVDDAFARAFQVWSDVTPLRFSRIHDGEADIMINFGRWEHGDGYPFDGKDGLLAHAFAPGTGVGGDSHFDDDELWTLGEGQVVRVKYGNADGEYCKFPFLFNGKEYNSCTDTGRSDGFLWCSTTYNFEKDGKYGFCPHEALFTMGGNAEGQPCKFPFRFQGTSYDSCTTEGRTDGYRWCGTTEDYDRDKKYGFCPETAMSTVGGNSEGAPCVFPFTFLGNKYESCTSAGRSDGKMWCATTANYDDDRKWGFCPDQGYSLFLVAAHEFGHAMGLEHSQDPGALMAPIYTYTKNFRLSQDDIKGIQELYGASPDIDLGTGPTPTLGPVTPEICKQDIVFDGIAQIRGEIFFFKDRFIWRTVTPRDKPMGPLLVATFWPELPEKIDAVYEAPQEEKAVFFAGNEYWIYSASTLERGYPKPLTSLGLPPDVQRVDAAFNWSKNKKTYIFAGDKFWRYNEVKKKMDPGFPKLIADAWNAIPDNLDAVVDLQGGGHSYFFKGAYYLKLENQSLKSVKFGSIKSDWLGC
B2: mouse MMP9 (Mus musculus) (protein)
chain: FQTFKGLKWDHHNITYWIQNYSEDLPRDMIDDAFARAFAVWGEVAPLTFTRVYGPEADIVIQFGVAEHGDGYPFDGKDGLLAHAFPPGAGVQGDAHFDDDELWSLGKGVVIPTYYGNSNGAPCHFPFTFEGRSYSACTTDGRNDGTPWCSTTADYDKDGKFGFCPSERLYTEHGNGEGKPCVFPFIFEGRSYSACTTKGRSDGYRWCATTANYDQDKLYGFCPTRVDATVVGGNSAGELCVFPFVFLGKQYSSCTSDGRRDGRLWCATTSNFDTDKKWGFCPDQGYSLFLVAAHEFGHALGLDHSSVPEALMYPLYSYLEGFPLNKDDIDGIQYLYGRGSKPDPRPPATTTTEPQPTAPPTMCPTIPPTAYPTVGPTVGPTGAPSPGPTSSPSPGPTGAPSPGPTAPPTAGSSEASTESLSPADNPCNVDVFDAIAEIQGALHFFKDGWYWKFLNHRGSPLQGPFLTARTWPALPATLDSAFEDPQTKRVFFFSGRQMWVYTGKTVLGPRSLDKLGLGPEVTHVSGLLPRRLGKALLFSKGRVWRFDLKSQKVDPQSVIRVDKEFSGVPWNSHDIFQYQDKAYFCHGKFFWRVSFQNEVNKVDHEVNQVDDVGYVTYDLLQCP
notes: The turnover of different substrates by active MMP-2 and active MMP-9 was determined using this assay

Tests used:
Type in all cases: biochemical
[1] = substrate: CC(=O)N1CCC[C@H]1C(=O)N[C@@H](CCCN)C(=O)NCC(=O)N[C@@H](CCc1ccccc1)C(=O)N[C@@H](CC(C)C)C(=O)NNC(=O)c1ccc(N/N=C/c2ccccc2S(=O)(=O)O)nc1; assay: Kinetic measurements of substrate hydrolysis by active MMP-2 (radio HPLC assay); settings: other: active MMP-2 final concentration 10 nM, 37° C., 60 minutes, radiolabeled test substrate, pH 7.5
Protocol: (§2) Purified MMP-2 (10 μg) or MMP-9 (10 μg) were reconstituted in 100 μL of TCN buffer. […] Pro-MMP-2 was activated by incubation with 2 nM APMA for 2 hours at 37° C. At the end of incubation 100 μl of 100% glycerol was added to active MMP-2 and active MMP-9 (final concentration 50% glycerol). Active MMP-2 and active MMP-9 were aliquoted and stored at −20° C.
(§3) The level of active protease was always quantified by active site titration studies prior to kinetic studies. The active site of MMP-9 and MMP-2 was titrated using the GM6001 dissolved in 100% DMSO at a stock concentration of 2.5 mM. Dilutions (1:2) of GM6001 were prepared in TCN buffer to give a final concentration of 5 nM to 0.04 nM GM6001 in the active site titration assay. Activated MMP-2 or activated MMP-9 (2 nM) was preincubated with increasing concentrations of GM60001 at 37° C. for 15 minutes in 96 well black microtiter plates. […] Plates were read on fluorescence spectrophotometer at excitation wavelength of 320 nm and emission wavelength of 395 nm. The concentration of the active enzyme was determined using the Morrison equation and Kaleidagraph software (Reading, Pa.).
(§4) The kinetic parameters of substrate hydrolysis were determined using a radio HPLC assay. The turnover of different substrates by active MMP-2 and active MMP-9 was determined using this assay. […] The radiolabel was detected by a IN/US beta ram detector. […]

[2] = substrate: CC(=O)N1CCC[C@H]1C(=O)N[C@@H](CC(C)C)C(=O)NCC(=O)N[C@@H](CCc1ccccc1)C(=O)N[C@@H](Cc1ccc(O)cc1)C(=O)N[C@@H](CC(C)C)C(=O)NNC(=O)c1ccc(N/N=C/c2ccccc2S(=O)(=O)ON)nc1; assay: as above; settings: other: active MMP-2 final concentration 10 nM, 37° C., 60 minutes, radiolabeled test substrate, pH 7.5
Protocol: as §2, §3, §4

[3] = substrate: CC(=O)N1CCC[C@H]1C(=O)N[C@@H](CCCN)C(=O)NCC(=O)N[C@@H](CCc1ccccc1)C(=O)N[C@@H](CC(C)C)C(=O)NNC(=O)c1ccc(N/N=C/c2ccccc2S(=O)(=O)O)nc1; assay: Substrate hydrolysis assay with mouse MMP9; settings: other: mouse MMP9; pH 7.5
Protocol: (§1) The kinetic parameters of substrate hydrolysis were determined using a radio HPLC assay. The turnover of different substrates by active MMP-2 and active MMP-9 was determined using this assay. A stock solution of different test substrates (10 mM) was prepared in 100% DMSO. Stock solutions of the test substrates were diluted 1000 fold (10 nM) in buffer (50 mM Hepes/pH 7.5, 10 mM CaCl2, 0.1% Brij) to give working stock solution. Working stock solution of the test substrate (15 μl) was added to buffer (120 μL) in a test tube and warmed at 37° C. for 2 minutes. To this solution 15 μL of working stock of active MMP-2 (final concentration 10 nM) or active MMP-9 was added (final concentration 2 nM). Finally, 4 μCi of radiolabeled test substrate was added and the solution was mixed and immediately 67.5 µL of the mix was transferred to HPLC vials containing 7.5 μl of 0.5M EDTA for t=0 minute measurement. The rest of the mix in the test tube was incubated at 37° C. for 60 minutes. At the 60 minute time point 67.5 μl of the mix was transferred to the HPLC vial containing 7.5 μL of 0.5 M EDTA for t=60 minute measurement. […] Mobile phase A (MPA) was 25 mM ammonium acetate and mobile phase B (MPB) was 100% acetonitrile. […] The radiolabel was detected by a IN/US beta ram detector. […]

[4] = substrate: CC(=O)N1CCC[C@H]1C(=O)N[C@@H](CC(C)C)C(=O)NCC(=O)N[C@@H](CCc1ccccc1)C(=O)N[C@@H](Cc1ccc(O)cc1)C(=O)N[C@@H](CC(C)C)C(=O)NNC(=O)c1ccc(N/N=C/c2ccccc2S(=O)(=O)ON)nc1; assay: Substrate hydrolysis assay with mouse MMP9; settings: other: mouse MMP9; pH 7.5
Protocol: as §1

Row | Protein | kcat/Km [1] [M⁻¹ s⁻¹] | kcat/Km [2] [M⁻¹ s⁻¹] | kcat/Km [3] [M⁻¹ s⁻¹] | kcat/Km [4] [M⁻¹ s⁻¹]
1 | B1 | 63700 | 63200 | – | –
2 | B2 | – | – | 897 | > 100000

From patent publication US20050106100A1, “Compounds containing matrix metalloproteinase substrates and methods of their use” (priority 2003, published 2005)
